Test results: patent US7799901B2, “Modulators of the function of FAS receptors and other proteins” (Yeda Research and Development Co. Ltd., priority 1995, dated 2010)

What was measured:
[1] = system: HeLa cells; assay: Ligand-independent cytocidal effect of MACH expression in HeLa cells, neutral red uptake; type: cell-based, human; details: 48 hrs. after transfection, FIG. 6
Procedure: In order to test this possibility, constructs encoding MACH were prepared with a tetracycline-controlled expression vector (for details see Example 1). These constructs were used to transfect HeLa cells in which the vectors were transiently expressed. Besides the MACH constructs, other control constructs were used to evaluate the effect of transient expression on the viability of the HeLa cells to which the effect of the MACH constructs could be compared. These other constructs included MORT-1, human FAS-IC and luciferase (Luc). In addition, co-transfection of the HeLa cells was also tested by using MORT-1 and MACH constructs to determine what effects the interaction between these proteins would cause. After transfection the HeLa cells were incubated and cell viability was evaluated 48 hrs. after transfection either in the presence or the absence of tetracycline (1 μg/ml) to block expression. Cell viability was determined by the neutral red uptake assay.
The results are shown in FIG. 6, which depicts graphically the ligand-independent triggering of cytocidal effects in cells transfected with MACH in comparison to cells transfected with constructs encoding the other proteins as well as cotransfected cells (MORT1+MACH). […]

[2] = biological target: T1, human p75 IC (Homo sapiens, UniProt P20333); assay: Two-hybrid β-galactosidase expression filter assay in SFY526 yeast, DNA-binding domain hybrid human p75 IC; details: specificity test
T1 construct: residues 287-461 of the intracellular domain of the human p75 TNF-R; expressed in transfected cells; host or cells: SFY526 yeast
T1 sequence (P20333 287-461): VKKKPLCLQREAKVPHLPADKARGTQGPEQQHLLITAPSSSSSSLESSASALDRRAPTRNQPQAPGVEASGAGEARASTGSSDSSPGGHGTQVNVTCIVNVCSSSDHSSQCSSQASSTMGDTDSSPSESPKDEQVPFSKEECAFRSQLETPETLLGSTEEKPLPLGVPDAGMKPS
From the text: (§1) To isolate proteins interacting with the intracellular domain of the FAS-R, the yeast two-hybrid system was used (Fields and Song, 1989). […] In this system, the genes for the candidate interacting proteins are cloned into separate expression vectors. In one expression vector, the sequence of the one candidate protein is cloned in phase with the sequence of the GAL4 DNA-binding domain to generate a hybrid protein with the GAL4 DNA-binding-domain, and in the other vector, the sequence of the second candidate protein is cloned in phase with the sequence of the GAL4 activation domain to generate a hybrid protein with the GAL4-activation domain. The two hybrid vectors are then co-transformed into a yeast host strain having a lacZ or HIS3 reporter gene under the control of upstream GAL4 binding sites. […]
(§2) The yeast two-hybrid test was further applied to evaluate the specificity of binding of MACH to MORT-1, in particular, to define the region in MORT-1 to which MACH binds, as well as to determine which of the MACH ORFs interacts with MORT-1, the procedures being as set forth herein above in Examples 1 and 2. Briefly, various MORT-1 and MACH constructs were prepared for testing the interaction of the proteins encoded by the Gal4 DNA-binding domain and activation domain constructs within transfected SFY526 yeast cells as assessed by the β-galactosidase expression filter assay. […]

[3] = biological target: T2, MORT1DD (130-245) (Homo sapiens, UniProt Q13158); assay: Two-hybrid β-galactosidase expression filter assay in SFY526 yeast, DNA-binding domain hybrid MORT1DD (130-245)
T2 construct: 130-245 MORT-1; expressed in transfected cells
T2 sequence (Q13158 82-197): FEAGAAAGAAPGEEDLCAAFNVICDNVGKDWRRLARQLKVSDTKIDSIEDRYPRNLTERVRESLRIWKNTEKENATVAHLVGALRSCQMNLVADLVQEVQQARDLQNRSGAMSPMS
From the text: as §1, §2

[4] = system: Lamin; assay: Two-hybrid β-galactosidase expression filter assay in SFY526 yeast, DNA-binding domain hybrid Lamin; details: specificity test
From the text: as §1, §2

[5] = biological target: T3, human CD40 IC (Homo sapiens, UniProt P25942); assay: Two-hybrid β-galactosidase expression filter assay in SFY526 yeast, DNA-binding domain hybrid human CD40 IC; details: specificity test
T3 construct: residues 216-277 of the intracellular domain of the human CD40; expressed in transfected cells; host or cells: SFY526 yeast
T3 sequence (P25942 216-277): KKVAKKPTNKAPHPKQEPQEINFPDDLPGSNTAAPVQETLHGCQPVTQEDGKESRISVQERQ
From the text: as §1, §2

[6] = biological target: T4, human FAS DD (Homo sapiens, UniProt P25445); assay: Two-hybrid β-galactosidase expression filter assay in SFY526 yeast, DNA-binding domain hybrid human FAS DD; details: specificity test
T4 construct: the ‘death domain’ region of the intracellular domain of the human Fas-R (human Fas DD); expressed in transfected cells; host or cells: SFY526 yeast
T4 sequence (P25445 230-314 limits assumed): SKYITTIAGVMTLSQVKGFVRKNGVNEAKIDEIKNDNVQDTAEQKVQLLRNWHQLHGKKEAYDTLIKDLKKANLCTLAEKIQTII
From the text: as §1, §2

[7] = biological target: T5, MORT-1 (Homo sapiens, UniProt Q13158, G32V); assay: Two-hybrid β-galactosidase expression filter assay in SFY526 yeast, DNA-binding domain hybrid MORT-1; set-up: the full-length MORT-1 cDNA was used (MORT 1); expressed in transfected cells; host or cells: SFY526 yeast; details: substance as activation domain hybrid
T5 sequence (Q13158 with tags, fused parts or gaps G32V): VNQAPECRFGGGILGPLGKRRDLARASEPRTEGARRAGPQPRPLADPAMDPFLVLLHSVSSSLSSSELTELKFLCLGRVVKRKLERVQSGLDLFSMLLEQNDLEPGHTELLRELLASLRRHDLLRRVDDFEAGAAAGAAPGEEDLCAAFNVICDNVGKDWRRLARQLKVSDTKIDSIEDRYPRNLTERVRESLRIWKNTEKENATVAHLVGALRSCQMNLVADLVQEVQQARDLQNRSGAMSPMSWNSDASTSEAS
From the text: as §1, with “sites. Only those transformed host cells (cotransformants) in which the two hybrid proteins are expressed and are capable of interacting with each other, will be capable of expressing the reporter gene.” for “sites.”
The yeast two-hybrid test was further applied to evaluate the specificity of binding of MACH to MORT-1, in particular, to define the region in MORT-1 to which MACH binds, as well as to determine which of the MACH ORFs interacts with MORT-1, the procedures being as set forth herein above in Examples 1 and 2. Briefly, various MORT-1 and MACH constructs were prepared for testing the interaction of the proteins encoded by the Gal4 DNA-binding domain and activation domain constructs within transfected SFY526 yeast cells as assessed by the β-galactosidase expression filter assay. […] In the assay, the development of color was determined, where the greater the color development, the greater the interaction between the constructs encoded by the DNA-binding domain and activation domain; Color development was depicted by symbols, where “+++” and “+” indicate the development of a strong color within 30 and 90 min. of the assay, respectively, and “−−−” indicates the lack of development of color within 24 hrs. of the assay. […]

[8] = Two-hybrid β-galactosidase expression filter assay in SFY526 yeast, empty pGBT9 vector; type: binding; details: negative control bait
From the text: as §1, §2

B1: MACH: MORT-1 associated CED3 homolog; full-length MACH cDNA construct; protein later renamed MACHβ1 (protein)
chain: MDFSRNLYDIGEQLDSEDLASLKFLSLDYIPQRKQEPIKDALMLFQRLQEKRMLEESNLSFLKELLFRINRLDLLITYLNTRKEEMERELQTPGRAQISAYRVMLYQISEEVSRSELRSFKFLLQEEISKCKLDDDMNLLDIFIEMEKRVILGEGKLDILKRVCAQINKSLLKIINDYEEFSKERSSSLEGSPDEFSNDFGQSLPNEKQTSGILSDHQQSQFCKSTGESAQTSQH
- cytotoxic effect of induced overexpression in HeLa cells [1]: dramatic cytotoxic effect
- development of color (interaction with DNA-binding domain hybrid) [2]: −−− (“−−−” indicates the lack of development of color within 24 hrs. of the assay)
- development of color (interaction with DNA-binding domain hybrid) [3]: −−− (“−−−” indicates the lack of development of color within 24 hrs. of the assay)
- development of color (interaction with DNA-binding domain hybrid) [4]: −−− (“−−−” indicates the lack of development of color within 24 hrs. of the assay)
- development of color (interaction with DNA-binding domain hybrid) [5]: −−− (“−−−” indicates the lack of development of color within 24 hrs. of the assay)
- development of color (interaction with DNA-binding domain hybrid) [6]: −−− (“−−−” indicates the lack of development of color within 24 hrs. of the assay)
- development of color (interaction with DNA-binding domain hybrid) [7]: +++ (“+++” and “+” indicate the development of a strong color within 30 and 90 min. of the assay, respectively)
- development of color (interaction with DNA-binding domain hybrid) [8]: −−− (“−−−” indicates the lack of development of color within 24 hrs. of the assay)
